Among the data in the Human Domainome abundance scans (Beltran et al. 2025) are abundance fitness values, retold here.

± gives the uncertainty stated by the source.

B1: GA-binding protein alpha chain, residues 172 to 250; numbered along this chain, Q06546 (parent)
chain: GYRKEQERLGIPYDPIQWSTDQVLHWVVWVMKEFSMTDIDLTTLNISGRELCSLNQEDFFQRVPRGEILWSHLELLRKY

In this data set the parent is B1. The experiment in a line: abundance fitness (aPCA) (normalised: wild type 0, dead -1); higher = more abundant; growth selection in yeast, the domain comes from the species named. The following applies: Homo sapiens.
With GYRKEQERLGIPYDPIQWSTDQVLHWVVWVMKEFSCTDIDLTTLNISGRELCSLNQEDFFQRVPRGEILWSHLELLRKY [M36C], the abundance fitness was determined as 0.081 ± 0.048.

As to GYRKEQERLGIPYDPIQWSTDQVLHWVVWVMKEFSRTDIDLTTLNISGRELCSLNQEDFFQRVPRGEILWSHLELLRKY [M36R], the abundance fitness is -0.029 ± 0.028.

On to GYRKEQERLGIPYDPIQWSTDQVLHWVVWVMKEFSITDIDLTTLNISGRELCSLNQEDFFQRVPRGEILWSHLELLRKY [M36I], for which the abundance fitness is -0.05 ± 0.068.

Regarding GYRKEQERLGIPYDPIQWSTDQVLHWVVWVMKEFSGTDIDLTTLNISGRELCSLNQEDFFQRVPRGEILWSHLELLRKY [M36G], the abundance fitness was -0.182 ± 0.032.

As to GYRKEQERLGIPYDPIQWSTDQVLHWVVWVMKEFSLTDIDLTTLNISGRELCSLNQEDFFQRVPRGEILWSHLELLRKY [M36L], the abundance fitness stood at 0.043 ± 0.038.

Regarding GYRKEQERLGIPYDPIQWSTDQVLHWVVWVMKEFSSTDIDLTTLNISGRELCSLNQEDFFQRVPRGEILWSHLELLRKY [M36S], the abundance fitness was -0.102 ± 0.045.

Turning to GYRKEQERLGIPYDPIQWSTDQVLHWVVWVMKEFSWTDIDLTTLNISGRELCSLNQEDFFQRVPRGEILWSHLELLRKY [M36W], the abundance fitness was -0.118 ± 0.04.

Turning to GYRKEQERLGIPYDPIQWSTDQVLHWVVWVMKEFSPTDIDLTTLNISGRELCSLNQEDFFQRVPRGEILWSHLELLRKY [M36P], the abundance fitness was -0.196 ± 0.055.

Consider GYRKEQERLGIPYDPIQWSTDQVLHWVVWVMKEFSNTDIDLTTLNISGRELCSLNQEDFFQRVPRGEILWSHLELLRKY [M36N], for which the abundance fitness was -0.189 ± 0.12.

As to GYRKEQERLGIPYDPIQWSTDQVLHWVVWVMKEFSQTDIDLTTLNISGRELCSLNQEDFFQRVPRGEILWSHLELLRKY [M36Q], the abundance fitness is -0.08 ± 0.054.

In the case of GYRKEQERLGIPYDPIQWSTDQVLHWVVWVMKEFSKTDIDLTTLNISGRELCSLNQEDFFQRVPRGEILWSHLELLRKY [M36K], the abundance fitness is -0.062 ± 0.043.

Consider GYRKEQERLGIPYDPIQWSTDQVLHWVVWVMKEFSHTDIDLTTLNISGRELCSLNQEDFFQRVPRGEILWSHLELLRKY [M36H], for which the abundance fitness was -0.193 ± 0.075.

Take GYRKEQERLGIPYDPIQWSTDQVLHWVVWVMKEFSFTDIDLTTLNISGRELCSLNQEDFFQRVPRGEILWSHLELLRKY [M36F]: the abundance fitness was -0.09 ± 0.058.

Turning to GYRKEQERLGIPYDPIQWSTDQVLHWVVWVMKEFSYTDIDLTTLNISGRELCSLNQEDFFQRVPRGEILWSHLELLRKY [M36Y], the abundance fitness was -0.053 ± 0.1.

In the case of GYRKEQERLGIPYDPIQWSTDQVLHWVVWVMKEFSDTDIDLTTLNISGRELCSLNQEDFFQRVPRGEILWSHLELLRKY [M36D], the abundance fitness is -0.019 ± 0.05.

Take GYRKEQERLGIPYDPIQWSTDQVLHWVVWVMKEFSETDIDLTTLNISGRELCSLNQEDFFQRVPRGEILWSHLELLRKY [M36E]: the abundance fitness was -0.031 ± 0.054.

Turning to GYRKEQERLGIPYDPIQWSTDQVLHWVVWVMKEFSATDIDLTTLNISGRELCSLNQEDFFQRVPRGEILWSHLELLRKY [M36A], the abundance fitness is -0.025 ± 0.039.

With GYRKEQERLGIPYDPIQWSTDQVLHWVVWVMKEFVMTDIDLTTLNISGRELCSLNQEDFFQRVPRGEILWSHLELLRKY [S35V], the abundance fitness is -0.165 ± 0.054.

In the case of GYRKEQERLGIPYDPIQWSTDQVLHWVVWVMKEFTMTDIDLTTLNISGRELCSLNQEDFFQRVPRGEILWSHLELLRKY [S35T], the abundance fitness is -0.013 ± 0.052.

For the variant GYRKEQERLGIPYDPIQWSTDQVLHWVVWVMKEFRMTDIDLTTLNISGRELCSLNQEDFFQRVPRGEILWSHLELLRKY [S35R], the abundance fitness is -0.045 ± 0.028.

With GYRKEQERLGIPYDPIQWSTDQVLHWVVWVMKEFLMTDIDLTTLNISGRELCSLNQEDFFQRVPRGEILWSHLELLRKY [S35L], the abundance fitness is -0.204 ± 0.031.

On to GYRKEQERLGIPYDPIQWSTDQVLHWVVWVMKEFQMTDIDLTTLNISGRELCSLNQEDFFQRVPRGEILWSHLELLRKY [S35Q], for which the abundance fitness came out at 0.014 ± 0.051.

Regarding GYRKEQERLGIPYDPIQWSTDQVLHWVVWVMKEFMMTDIDLTTLNISGRELCSLNQEDFFQRVPRGEILWSHLELLRKY [S35M], the abundance fitness is -0.14 ± 0.064.

For GYRKEQERLGIPYDPIQWSTDQVLHWVVWVMKEFHMTDIDLTTLNISGRELCSLNQEDFFQRVPRGEILWSHLELLRKY [S35H], the abundance fitness was 0.008 ± 0.063.

Turning to GYRKEQERLGIPYDPIQWSTDQVLHWVVWVMKEFFMTDIDLTTLNISGRELCSLNQEDFFQRVPRGEILWSHLELLRKY [S35F], the abundance fitness is -0.42 ± 0.086.

Take GYRKEQERLGIPYDPIQWSTDQVLHWVVWVMKEFCMTDIDLTTLNISGRELCSLNQEDFFQRVPRGEILWSHLELLRKY [S35C]: the abundance fitness was -0.044 ± 0.055.

Regarding GYRKEQERLGIPYDPIQWSTDQVLHWVVWVMKEFEMTDIDLTTLNISGRELCSLNQEDFFQRVPRGEILWSHLELLRKY [S35E], the abundance fitness was -0.035 ± 0.052.

For GYRKEQERLGIPYDPIQWSTDQVLHWVVWVMKEFWMTDIDLTTLNISGRELCSLNQEDFFQRVPRGEILWSHLELLRKY [S35W], the abundance fitness was -0.335 ± 0.044.

Consider GYRKEQERLGIPYDPIQWSTDQVLHWVVWVMKEFKMTDIDLTTLNISGRELCSLNQEDFFQRVPRGEILWSHLELLRKY [S35K], for which the abundance fitness was -0.028 ± 0.062.

Turning to GYRKEQERLGIPYDPIQWSTDQVLHWVVWVMKEFPMTDIDLTTLNISGRELCSLNQEDFFQRVPRGEILWSHLELLRKY [S35P], the abundance fitness is -0.091 ± 0.036.

On to GYRKEQERLGIPYDPIQWSTDQVLHWVVWVMKEFAMTDIDLTTLNISGRELCSLNQEDFFQRVPRGEILWSHLELLRKY [S35A], for which the abundance fitness was -0.086 ± 0.046.

Turning to GYRKEQERLGIPYDPIQWSTDQVLHWVVWVMKEFIMTDIDLTTLNISGRELCSLNQEDFFQRVPRGEILWSHLELLRKY [S35I], the abundance fitness is -0.781 ± 0.21.

As to GYRKEQERLGIPYDPIQWSTDQVLHWVVWVMKEFYMTDIDLTTLNISGRELCSLNQEDFFQRVPRGEILWSHLELLRKY [S35Y], the abundance fitness is -0.205 ± 0.086.

For the variant GYRKEQERLGIPYDPIQWSTDQVLHWVVWVMKEFNMTDIDLTTLNISGRELCSLNQEDFFQRVPRGEILWSHLELLRKY [S35N], the abundance fitness was -0.009 ± 0.051.

In the case of GYRKEQERLGIPYDPIQWSTDQVLHWVVWVMKEFGMTDIDLTTLNISGRELCSLNQEDFFQRVPRGEILWSHLELLRKY [S35G], the abundance fitness came to 0.018 ± 0.034.
